Reference: patent US20230340070A1

Columns and labels:
[1] = molecular target: anti-TRP-1 antibody (TA99, BioXcell); assay: cell-based or functional assay
[2] = molecular target: anti-CD20 antibody (18B12, Absolute antibody); assay: cell-based or functional assay

Row | B16-H2B-tdTomato target cell count after 48 hours co-culture with infected CD8+ T cells and anti-TRP-1 antibody (FIG. 8C; sham: around 750 B16 cells) [1] | Substance | killing of B16-H2B-tdTomato target cells by infected CD4+ and CD8+ T cells with anti-TRP-1 antibody, incuCyte target cell numbers after 48 hours; effector : target ratio needed (effector : target ratio (x to 1)) [1] | killing of B16-H2B-tdTomato target cells by infected T cells with anti-TRP-1 antibody, incuCyte; effector : target ratio at which killing was induced (effector : target ratio (x:1)) [1] | A20 B-cell lymphoma cell death by Annexin-V staining in flow cytometry after co-culture with infected CD8+ T cells and anti-CD20 antibody [2]
1 | 575 B16 cells | Alpha-2A-gamma (extracellular, transmembrane and intracellular domains of FcγRI, T2A skipping peptide and FcRγ) (receptor) | > 8 |  | 
2 |  | Alpha-gamma-2A-gamma (extracellular and transmembrane domains of FcγRI fused to the intracellular domain of FcRγ, T2A skipping peptide and FcRγ) |  | 2 | 
3 | 460 B16 cells | Alpha-gamma-2A-gamma (extracellular and transmembrane domains of FcγRI fused to the intracellular domain of FcRγ, T2A skipping peptide and FcRγ) (receptor) |  |  | 20%
